The values that follow come from paper doi:10.1101/2024.07.05.602318 (bioRxiv, 2024).

The target of this experiment is CLPX-3xFLAG (human, UniProt O76031 65-633). The experiment is described as follows: co-IP.
Sequence of CLPX-3xFLAG (O76031 65-633): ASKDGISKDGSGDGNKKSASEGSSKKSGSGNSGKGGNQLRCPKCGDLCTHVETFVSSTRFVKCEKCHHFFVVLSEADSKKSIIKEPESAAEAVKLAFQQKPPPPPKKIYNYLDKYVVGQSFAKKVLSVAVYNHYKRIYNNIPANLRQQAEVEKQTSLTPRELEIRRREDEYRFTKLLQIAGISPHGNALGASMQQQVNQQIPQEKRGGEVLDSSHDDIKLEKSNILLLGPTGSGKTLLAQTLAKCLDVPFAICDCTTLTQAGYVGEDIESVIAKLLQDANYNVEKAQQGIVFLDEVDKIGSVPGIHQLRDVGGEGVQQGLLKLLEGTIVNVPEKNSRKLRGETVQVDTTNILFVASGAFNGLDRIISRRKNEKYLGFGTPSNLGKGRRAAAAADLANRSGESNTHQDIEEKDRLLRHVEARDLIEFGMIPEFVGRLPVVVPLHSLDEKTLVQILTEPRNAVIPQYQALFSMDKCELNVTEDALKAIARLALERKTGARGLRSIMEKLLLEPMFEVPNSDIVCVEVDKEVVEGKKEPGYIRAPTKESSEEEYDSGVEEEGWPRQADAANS

B1: POLDIP2 H225A, residues 52-368 (natural protein, human, UniProt Q9Y2S7 52-368, looked up)
chain: SSRNRPEGKVLETVGVFEVPKQNGKYETGQLFLHSIFGYRGVVLFPWQARLYDRDVASAAPEKAENPAGHGSKEVKGKTHTYYQVLIDARDCPHISQRSQTEAVTFLANHDDSRALYAIPGLDYVSHEDILPYTSTDQVPIQHELFERFLLYDQTKAPPFVARETLRAWQEKNAPWLELSDVHRETTENIRVTVIPFYMGMREAQNSHVYWWRYCIRLENLDSDVVQLRERHWRIFSLSGTLETVRGRGVVGREPVLSKEQPAFQYSSHVSLQASSGHMWGTFRFERPDGSHFDVRIPPFSLESNKDEKTPPSGLHW
Take B1: the binding result is on record as “binds”.

B2: POLDIP2 (DNA polymerase delta interacting protein 2), residues 52-368 (natural protein, human, UniProt Q9Y2S7 52-368, looked up)
chain: SSRNRPEGKVLETVGVFEVPKQNGKYETGQLFLHSIFGYRGVVLFPWQARLYDRDVASAAPEKAENPAGHGSKEVKGKTHTYYQVLIDARDCPHISQRSQTEAVTFLANHDDSRALYAIPGLDYVSHEDILPYTSTDQVPIQHELFERFLLYDQTKAPPFVARETLRAWQEKNHPWLELSDVHRETTENIRVTVIPFYMGMREAQNSHVYWWRYCIRLENLDSDVVQLRERHWRIFSLSGTLETVRGRGVVGREPVLSKEQPAFQYSSHVSLQASSGHMWGTFRFERPDGSHFDVRIPPFSLESNKDEKTPPSGLHW
In the case of B2, the binding result is reported as “binds”.
